Results taken from paper PMC10053435, “Crystal structures of dimeric and heptameric mtHsp60 reveal the mechanism of chaperonin inactivation” (Life Science Alliance, 2023).

Assays:
[1] = target: the molecule itself; assay: SEC; protein homogenised and purified at 4°C (LT); Superdex S200pg 16/600, 25 mM Tris-HCl pH 7.6, 150 mM NaCl, 1 ml/min
[2] = target: the molecule itself; assay: SEC; protein homogenised and purified at room temperature (RT, 25°C); Superdex S200pg 16/600, 25 mM Tris-HCl pH 7.6, 150 mM NaCl, 1 ml/min

B1: naïve Epinephelus coioides mtHsp60 (EcHsp60), with the mitochondrial importing signal (natural protein)
chain: MFRLPTVMKQVRPVCRALAPHLTRAYAKDVKFGADARALMLQGVDLLADAVAVTMGPKGRTVIIEQSWGSPKVTKDGVTVAKSIDLKDKYKNIGAKLVQDVANNTNEEAGDGTTTATVLARAIAKEGFDTISKGANPVEIRRGVMMAVETVIKELKNLSKPVTTPEEIAQVATISANGDVEIGNIISNAMKKVGRKGVITVKDGKTLHDELEIIEGMKFDRGYISPYFINTAKGQKCEFQDAYLLLSEKKISSVQSIVPALEIANQHRKPLVIVAEDVDGEALSTLVLNRLKVGLQVVAVKAPGFGDNRKNQLRDMAVATGGTVFGDEAVGLALEDIQAHDFGKIGEVQITKDDTLLLKGGGSPAEVEKRAAEIVEQLENTTSDYEKEKLNERLAKLSDGVAVLKVGGTSDVEVNEKKDRVTDALNATRAAVEEGIVPGGGCALLRCIPSLDAIQTANADQKIGVEIIRRALRIPAMTIAKNAGVEGSLVVEKILQGSAELGYDAMQGEYVNMVEKGIIDPTKVVRTALLDAAGVASLLSTAEAVVTEIPKEEKEMPGGMGGMGGMGGMGGMGGGMGF
stoichiometry N [1]: 2 | stoichiometry N [2]: 7

B2: naïve EcHsp60^ΔC (C-terminal GGM repeats truncated, Δ527–552) (domain or fragment)
chain: MFRLPTVMKQVRPVCRALAPHLTRAYAKDVKFGADARALMLQGVDLLADAVAVTMGPKGRTVIIEQSWGSPKVTKDGVTVAKSIDLKDKYKNIGAKLVQDVANNTNEEAGDGTTTATVLARAIAKEGFDTISKGANPVEIRRGVMMAVETVIKELKNLSKPVTTPEEIAQVATISANGDVEIGNIISNAMKKVGRKGVITVKDGKTLHDELEIIEGMKFDRGYISPYFINTAKGQKCEFQDAYLLLSEKKISSVQSIVPALEIANQHRKPLVIVAEDVDGEALSTLVLNRLKVGLQVVAVKAPGFGDNRKNQLRDMAVATGGTVFGDEAVGLALEDIQAHDFGKIGEVQITKDDTLLLKGGGSPAEVEKRAAEIVEQLENTTSDYEKEKLNERLAKLSDGVAVLKVGGTSDVEVNEKKDRVTDALNATRAAVEEGIVPGGGCALLRCIPSLDAIQTANADQKIGVEIIRRALRIPAMTIAKNAGVEGSLVVEKILQGSAELGYDAMQGEYVNMVEKGIIDPTKVVRTALLDAAGVASLLSTAEAVVTEIPKE
stoichiometry N [1]: 7
